According to patent US20050164186, “Alteration of restriction endonuclease specificity by genetic selection” (published 2005):

Target: T1, BstYI NN1 (K133N/S172N) (Bacillus stearothermophilus, K133N,S172N)
T1 chain: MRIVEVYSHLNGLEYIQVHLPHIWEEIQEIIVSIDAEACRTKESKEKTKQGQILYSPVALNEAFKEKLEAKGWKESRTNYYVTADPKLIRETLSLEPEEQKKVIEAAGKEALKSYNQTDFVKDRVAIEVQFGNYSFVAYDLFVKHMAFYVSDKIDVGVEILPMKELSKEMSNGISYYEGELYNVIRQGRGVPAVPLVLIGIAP
Experiment: cleavage_in_vitro; 60 C
Details: label: radiolabel

B1: AGATCT site, 60 bp substrate (dsDNA)
DNA 1: AGATCT
DNA 2: AGATCT
- binding signal: 7 fold preference over AGATCC/GGATCT
